{"source": "paper PMC8399745", "about": "“Nanostructured Lipid Carriers (NLCs) for Oral Peptide Drug Delivery: About the Impact of Surface Decoration” (Pharmaceutics, 2021)", "assay": "Log P octanol/water of INS and INS-SDS complexes", "assay_type": "physicochemical", "conditions": "shake-flask octanol/water (1:1), 1 mg in 1 mL, 37 °C, 500 rpm, 12 h, centrifugation, INS quantified in each phase by HPLC (214 nm); means, n = 3", "experimental": "Log Poctanol/water of INS and INS-SDS complexes was determined using a previously described method with minor modification. Briefly, 1 mg of each product was added to 1 mL of octanol/water (1:1) (Sigma-Aldrich Chemie GmbH, Vienna, Austria). The mixtures were incubated at 37 °C while stirring at 500 rpm for 12 h. Thereafter, samples were centrifuged at 13,400 rpm for 10 min. Aliquots of 100 μL were withdrawn from each phase (octanol and water) and analyzed via HPLC after dilution with 300 μL of methanol (Sigma-Aldrich Chemie GmbH, Vienna, Austria) containing 0.1% (v/v) TFA. Log P was calculated according to the following equation: Log P=Log(Concentration of INS in octanol phase/Concentration of INS in water phase)"}
{"substance": "Human recombinant insulin", "values": [{"measurement": "log Poctanol/water", "result": "−1.8"}]}
